The values that follow come from paper PMC5864733.

For the series, the target named is CsrA (Escherichia coli EPEC O127:H6 E2348/69, UniProt B7UHB4 1-61). The series is described as follows: EMSA; no CesT. The following applies: protein: recombinant; tags: GST tag, cleaved by PreScission (pGEX-6P-1); chain copies: 2; label: none (ethidium bromide stain); single strand, heated to 80 C and slowly cooled. (In general: In EMSA bound probe runs differently from free probe, usually more slowly.)
CsrA, sequence (B7UHB4 whole entry): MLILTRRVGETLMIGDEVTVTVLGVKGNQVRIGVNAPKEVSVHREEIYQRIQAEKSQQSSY

For the molecule CACUAAUAAUAUCAAUGGAUUGAUAUUAUUAAUG (structured_RNA) [nleA 5'UTR RNA], the binding result is “binds”.
